# Source: publication PMC4145800, “A tethered delivery mechanism explains the catalytic action of a microtubule polymerase” (eLife, 2014)
# Target: T1, wild-type (polymerization-competent) yeast αβ-tubulin (yeast, UniProt P09733 1-447; P02557 1-457)
# T1 construct: α-tubulin of yeast; β-tubulin of yeast, wild type; source: overexpressed in Saccharomyces cerevisiae, purified; copies: 1 + 1
# Assay: AUC; sedimentation velocity; seven concentrations of TOG1 or TOG2 (44 nM-4.5 μM) titrated into 0.35 μM αβ-tubulin; 1:1 binding isotherm fitted; RB100 with 20 μM GTP, 20°C
# Settings: both partners purified
binder,measurement,value
"TOG2 domain from Stu2p, TOG2(318-560) (domain or fragment) MLPEETILDKLPKDFQERITSSKWKDRVEALEEFWDSVLSQTKKLKSTSQNYSNLLGIYGHIIQKDANIQAVALAAQSVELICDKLKTPGFSKDYVSLVFTPLLDRTKEKKPSVIEAIRKALLTICKYYDPLASSGRNEDMLKDILEHMKHKTPQIRMECTQLFNASMKEEKDGYSTLQRYLKDEVVPIVIQIVNDTQPAIRTIGFESFAILIKIFGMNTFVKTLEHLDNLKRKKIEETVKTL",Kd,160 nM
same,stoichiometry N,1
